The values below come from publication PMC9443943.

A short description of data set [1]: sucrose gradient sEV fractions from SNU449, Strep immunoblot. As to conditions: glycan lost; control: TM4SF5-WT. (In western blotting, separated proteins are transferred to a membrane and probed.)
Data set [2] in a line: immunoblot of sEVs from transfected Huh7 cells. As to conditions: glycan lost; control: TM4SF5-Strep WT.

B1: Transmembrane 4 L six family member 5 (TM4SF5): N138A/N155Q, Gly− (protein)
parent chain: MCTGKCARCVGLSLITLCLVCIVANALLLVPNGETSWTNTNHLSLQVWLMGGFIGGGLMVLCPGIAAVRAGGKGCCGAGCCGNRCRMLRSVFSSAFGVLGAIYCLSVSGAGLRNGPRCLMNGEWGYHFEDTAGAYLLNRTLWDRCEAPPRVVPWNVTLFSLLVAASCLEIVLCGIQLVNATIGVFCGDCRKKQDTPH
Take B1: the localisation_or_trafficking result in data set [1] and in data set [2] was “abolishes” each time.

B2: Transmembrane 4 L six family member 5 (TM4SF5): N138A (protein)
parent chain: B1 parent chain
In the case of B2, the localisation_or_trafficking result in data set [2] is on record as “decreases”.

B3: Transmembrane 4 L six family member 5 (TM4SF5): N155Q (protein)
parent chain: B1 parent chain
Turning to B3, the localisation_or_trafficking entry in data set [2] is “no change”.
